Experimental data as given in patent US11135223B2, “Compositions and methods for inhibiting Dkk-1” (YALE UNIVERSITY, priority 2016, dated 2021).

Test system: leukocytes
Test: Exogenous administration of Dkk-1 protein to mice
Assay type: in vivo, C57BL/6 mice
Protocol: FIG. 11, comprising FIG. 11A through FIG. 11J, depicts results of experiments showing Dkk-1 facilitates leukocyte migration and regulates leukocyte-platelet aggregate formation in type 2 inflammation. FIG. 11A depicts flow cytometry analysis of CD45^+ cells in lung homogenates from nine-week old Dkk-1^d/d mice and wildtype littermate controls (n=5-6/group) 72 hours after challenge with 30 μg HDM allergen extract. FIG. 11B depicts analysis of percentages of CD45^+CD41^+ cells in peripheral blood from nine-week old Dkk-1^d/d mice and wildtype littermate controls collected at 4 hours and 24 hours after allergen challenge. FIG. 11C depicts flow cytometry analysis of CD45+ cells after Dkk-1 protein (300 ng/mouse) was injected intraperitoneally. […]
FIG. 12, comprising FIG. 12A through FIG. 12G, depicts results of experiments showing regulation of LPA formation by Dkk-1. […] B-cell and CD4 T cell among CD45^+CD41^+ cells were monitored at the indicated time points in Dkk-1^d/d mice and their wildtype littermate controls challenged with 30 μg HDM extract/mouse. […] Mean fluorescence intensity was normalized to unchallenged C57BL/6 mice. […] Normalized MFI for ICAM-1 expression and the percentages of LFA-1 high cells were measured by flow cytometry following injection of 300 ng of Dkk-1 intraperitoneally. […]

B1: Dkk-1: Wnt antagonist Dickkopf-1 protein, expressed in CHO cells, added to cells or injected into mice (protein, UniProt O94907 32-266, looked up)
Dickkopf-related protein 1: TLNSVLNSNAIKNLPPPLGGAAGHPGSAVSAAPGILYPGGNKYQTIDNYQPYPCAEDEECGTDEYCASPTRGGDAGVQICLACRKRRKRCMRHAMCCPGNYCKNGICVSSDQNHFRGEIEETITESFGNDHSTLDGYSRRTTLSSKMYHTKGQEGSVCLRSSDCASGLCCARHFWSKICKPVLKEGQVCTKHRRKGSHGLEIFQRCYCGEGLSCRIQKDHHQASNSSRLHTCQRH
LPA formation (300 ng of Dkk-1, without allergen or parasite challenge): increased | number of infiltrated leukocytes in the lung (300 ng/mouse intraperitoneally, 72 hours after administration): did not increase
